Numbering of substitutions follows the chain as printed. Numbers in names are those of the source. Bounds are passed on as bounds.

This note sets out measurements from article PMC10019796 (Scientific Reports, 2023).

Sequences and labels used below:
B1: REGN10933 (Casirivimab) Fab wild type (Fab, V domains shown)
VH: QVQLVESGGGLVKPGGSLRLSCAASGFTFSDYYMSWIRQAPGKGLEWVSYITYSGSTIYYADSVKGRFTISRDNAKSSLYLQMNSLRAEDTAVYYCARDRGTTMVPFDYWGQGTLVTVSS
VL: DIQMTQSPSSLSASVGDRVTITCQASQDITNYLNWYQQKPGKAPKLLIYAASNLETGVPSRFSGSGSGTDFTFTISGLQPEDIATYYCQQYDNLPLTFGGGTKVEIK
notes: Fab heavy chain of REGN10933; Fab light chain of REGN10933; Polycistronic gene, light chain upstream of heavy chain; also called REGN10933 wild type; REGN10933 Fab
B2: REGN10933 (T28E) Fab (Fab, V domains shown)
VH: B1 VH with T28E
VL: B1 VL
B3: REGN10933 (M104N) Fab (Fab, V domains shown)
VH: B1 VH with M104N
VL: B1 VL
B4: REGN10933 (N93Q) Fab (Fab, V domains shown)
VH: B1 VH
VL: B1 VL with N93Q
B5: REGN10933 (A75S) Fab (Fab, V domains shown)
VH: B1 VH with A75S
VL: B1 VL
B6: REGN10987 (Imdevimab) Fab wild type (Fab, V domains shown)
VH: QVQLVESGGGVVQPGRSLRLSCAASGFTFSNYAMYWVRQAPGKGLEWVAVISYDGSNKYYADSVKGRFTISRDNSKNTLYLQMNSLRTEDTAVYYCASGSDYGDYLLVYWGQGTLVTVSS
VL: QSALTQPASVSGSPGQSITISCTGTSSDVGGYNYVSWYQQHPGKAPKLMIYDVSKRPSGVSNRFSGSKSGNTASLTISGLQSEDEADYYCNSLTSISTWVFGGGTKLTVL
notes: Fab heavy chain of REGN10987; Fab light chain of REGN10987; Polycistronic gene, light chain upstream of heavy chain; also called REGN10987 wild type; REGN10987 Fab
B7: REGN10987 (N31D) Fab (Fab, V domains shown)
VH: B6 VH with N31D
VL: B6 VL
B8: REGN10987 (S95K) Fab (Fab, V domains shown)
VH: B6 VH
VL: B6 VL with S95K

The first assay addresses T1, mtDsbC-SARS-CoV-2 RBD Alpha variant (B.1.1.7) fusion protein (SARS-CoV-2, Alpha (B.1.1.7), RBD N501Y, N501Y, biotin (EZ-Link NHS-PEG4-Biotin)).
T1 construct: also called RBD SARS-CoV-2 (alpha variant); not shown: mtDsbC solubility tag, N-terminal, kept
In words: BLI; biotinylated mtDsbC-RBD (20 µg/mL) immobilised on streptavidin (SA) biosensors, Fabs as analytes at three nanomolar concentrations; Octet RED384, 30 °C, 1000 rpm, 1 × PBS Kinetics Buffer; 1:1 interaction model, global fit. As to conditions: both partners purified. (BLI is a label-free optical method that tracks binding on a fibre tip over time.)
The Kd is a measure of binding affinity in units of concentration. A higher Kd goes with lower affinity. Take B1: binding was put at a Kd of 3.12 nM.

With B2, the Kd is under 0.001 nM.

Molecule B3 registered a Kd of 119 nM.

Turning to B4, the Kd came out at 3.42 nM.

The molecule B5 showed a Kd of 2.75 nM.

The molecule B6 displayed a dissociation constant Kd of 54.1 nM.

The molecule B7 had a Kd of 13.7 nM.

For the molecule B8, binding was characterised by a dissociation constant (Kd) of 22.8 nM.

A further assay has as its target T2, mtDsbC-SARS-CoV-2 RBD wild type fusion protein (SARS-CoV-2, wild type (Wuhan-Hu-1), UniProt P0DTC2, biotin (EZ-Link NHS-PEG4-Biotin)).
T2 construct: also called RBD SARS-CoV-2 (wild type); mtDsbC-RBD; not shown: mtDsbC solubility tag, N-terminal, kept
The assay is described as above. As to conditions: both partners purified.
B1 showed a Kd of 2.84 nM. That is a single-digit nanomolar value.

For B2, the equilibrium dissociation constant (Kd) is under 0.001 nM.

Consider B3, for which the affinity, expressed as Kd, was 143 nM.

B4 showed a Kd of 2.76 nM.

On to B5, for which binding was put at a Kd of 3.22 nM.

Turning to B6, the Kd was found to be 43.9 nM.

Take B7: the Kd was determined as 17.9 nM.

In the case of B8, the affinity, expressed as Kd, was 30.5 nM.
